Usually stoichiometry N stands for a count of units in the complex or per binding partner. As usually defined, the Kd is the free concentration of one partner at which half of the binding sites on the other are occupied at equilibrium, for simple one-to-one binding. The low end stands for tighter binding, the high end for weaker binding.

For assay [1], the target named is measles virus (MeV) phosphoprotein (P), optimized construct (human measles virus) (UniProt P03422). In words: cryo-EM structure.
For assay [2], the target named is eGFP-tagged measles virus C protein, full length (human measles virus) (UniProt P03424). Briefly: MST.
The target is the same in assay [3]. Briefly: MST. This is another data set of the same source.

Where two headings read alike, the source gives them in different places.

On to “measles virus (MeV) phosphoprotein (P), optimized construct (from UniProt P03422 1-507) (natural protein)”, for which, in assay [1], the stoichiometry N was determined as 4.

With “measles virus (MeV) N protein, monomeric (N_ΔN-arm) (domain or fragment)”, the Kd in assay [2] is 4.57 µM; in assay [3], 3.92 µM.

The values above are taken from publication PMC13080021.
